Assay: Enzyme activity in tumour xenograft samples (methotrexate turnover, HPLC)
Format: in vivo, athymic nude mice
Details: 20% recombinant: 80% parental LoVo tumours
Experimental: Recombinant LoVo fusion protein (A5B7-CPG2)2 expressing tumour cells or mixes of recombinant and parental LoVo cells were injected subcutaneously into athymic nude mice (10^7 tumour cells per mouse). The tumour growth rates for both 100% recombinant and 20%: 80% mixes of recombinant:parental LoVo cells were compared to those of parental cell only tumours.
To act as a standard for the assay, a CPG2 enzyme standard curve was prepared in 20% homogenate of normal tumour (parental cell tumour). Subsequent dilutions of samples were made in the same 20% homogenate of normal tumour.
Excised tumour tissue is removed from −80° storage (previously flash frozen in liquid nitrogen) and allowed to thaw. Any residual skin tissue was removed before the tumour was cut up in to small fragments with a scalpel. The tumour tissue was transferred to a preweighed tube and the weight of tumour tissue measured. PBS containing 0.2 mM ZnCl2 solution was added to each tumour sample to give a 20% (w/v) mix, homogenised and placed on ice. Dilutions of sample tumours (in 20% normal tumour homogenate) were prepared e.g. neat, 1/10, 1/20 and 1/40.
For the standard curve, dilutions of CPG2 enzyme were made to the following concentrations to a final volume of 400 μl. Similarly, 400 μl of each of the recombinant tumour sample dilutions were also prepared. After equilibration to 30°, 4 μl of 10 mM methotrexate (MTX) solution was added. The reaction was stopped after exactly 10 minutes by adding 600 μl ice cold methanol+0.2% TFA, centrifuged and the supematant collected. The substrate and product in the supernatant were then separated by HPLC (using a Cation Exchange Column, HICROM™ S5SCX-100 A, mobile phase=60% methanol, 40% 60 mM ammonium formate/0.1% TFA, detection 300 nm). To calculate enzyme activity in the tumour tissue, the standard curve was plotted as units of area of methotrexate metabolite (the standards are such that only 20-30% of the substrate is metabolised so ensuring this is not rate limiting). The test samples were analysed by comparing the unit area of metabolite against the standard curve and then multiplying by the dilution factor. Finally, making the working assumption that 1 ml=1 g the results were multiplied by 5 (as the samples were originally diluted to a 20% homogenate).

B1: (A5B7 Fab-CPG2)2 fusion protein: chimaeric A5B7 anti-CEA Fab, heavy chain Fd linked via (G4S)3 linker to CPG2 R6, dimerised through CPG2 (antibody)
heavy: EVKLVESGGGLVQPGGSLRLSCATSGFTFTDYYMNWVRQPPGKALEWLGFIGNKANGYTTEYSASVKGRFTISRDKSQSILYLQMNTLRAEDSATYYCTRDRGLRFYFDYWGQGTTLTVSSASTKGPSVFPLAPCSRSTSESTAALGCLVKDYFPEPVTVSWNSGALTSGVHTFPAVLQSSGLYSLSSVVTVPSSNFGTQTYTCNVDHKPSNTKVDKTVGGGGSGGGGSGGGGSQKRDNVLFQAATDEQPAVIKTLEKLVNIETGTGDAEGIAAAGNFLEAELKNLGFTVTRSKSAGLVVGDNIVGKIKGRGGKNLLLMSHMDTVYLKGILAKAPFRVEGDKAYGPGIADDKGGNAVILHTLKLLKEYGVRDYGTITVLFNTDEEKGSFGSRDLIQEEAKLADYVLSFEPTSAGDEKLSLGTSGIAYVQVQITGKASHAGAAPELGVNALVEASDLVLRTMNIDDKAKNLRFQWTIAKAGQVSNIIPASATLNADVRYARNEDFDAAMKTLEERAQQKKLPEADVKVIVTRGRPAFNAGEGGKKLVDKAVAYYKEAGGTLGVEERTGGGTDAAYAALSGKPVIESLGLPGFGYHSDKAEYVDISAIPRRLYMAARLIMDLGAGK
light: QTVLSQSPAILSASPGEKVTMTCRASSSVTYIHWYQQKPGSSPKSWIYATSNLASGVPARFSGSGSGTSYSLTISRVEAEDAATYYCQHWSSKPPTFGGGTKLEIKRTVAAPSVFIFPPSDEQLKSGTASVVCLLNNFYPREAKVQWKVDNALQSGNSQESVTEQDSKDSTYSLSSTLTLSKADYEKHKVYACEVTHQGLSSPVTKSFNRGEC
In the case of B1, the “average enzyme activity in tumour” value (day 5) is reported as 0.26 U/g, the “range of enzyme activity in tumour” value (day 5) is reported as 0.18-0.36 U/g and the “average enzyme activity in tumour” value (day 12) is reported as 0.65 U/g. The “range of enzyme activity in tumour” value (day 12) was 0.19-1.1 U/g.

— patent publication US6339070B1, “Gene construct encoding a heterologous prodrug-activating enzyme and a cell targeting moiety” (Zeneca Limited, priority 1997, dated 2002)
